Source: patent publication US20250163181A1

What was measured:
[1] = molecular target: human prothrombin wild-type (human) (UniProt P00734); assay: SPR, calculated from Kd
[2] = molecular target: kringle-2 of human prothrombin (amino acids 156-271) (human) (UniProt P00734); assay: SPR, calculated from Kd
[3] = molecular target: prothrombin variant S91A/Y93A (human) (UniProt P00734); assay: SPR, calculated from Kd
[4] = molecular target: human prothrombin wild-type (human) (UniProt P00734); assay: ELISA, antigen immobilised, Hill fit
[5] = molecular target: kringle-2 of human prothrombin (amino acids 156-271) (human) (UniProt P00734); assay: ELISA, antigen immobilised, Hill fit
[6] = molecular target: prothrombin variant S91A/Y93A (human) (UniProt P00734); assay: ELISA, antigen immobilised, Hill fit
[7] = molecular target: human prothrombin wild-type (human) (UniProt P00734); assay: SPR, AHP immobilised, HEPES buffer, 25 C
[8] = molecular target: kringle-2 of human prothrombin (amino acids 156-271) (human) (UniProt P00734); assay: SPR, AHP immobilised, HEPES buffer, 25 C
[9] = molecular target: prothrombin variant S91A/Y93A (human) (UniProt P00734); assay: SPR, AHP immobilised, HEPES buffer, 25 C
[10] = molecular target: human prothrombin wild-type (human) (UniProt P00734); assay: SPR, calculated from Kd; prothrombin with 200 µM argatroban
[11] = molecular target: human prothrombin wild-type (human) (UniProt P00734); assay: SPR, AHP immobilised; prothrombin with 200 µM argatroban (open form)

ΔG [1]: -42.3 kJ/mol | ΔG [2]: -43.1 kJ/mol | ΔG [3]: -43.9 kJ/mol | EC50 [4]: 0.195 mg/L | EC50 [5]: 0.249 mg/L | EC50 [6]: 0.185 mg/L | Kd [7]: 0.0383 µM | koff [7]: 0.000136 s⁻¹ | kon [7]: 3540 M⁻¹ s⁻¹ | Kd [8]: 0.0278 µM | koff [8]: 0.000128 s⁻¹ | kon [8]: 4600 M⁻¹ s⁻¹ | Kd [9]: 0.0195 µM | koff [9]: 0.000123 s⁻¹ | kon [9]: 6320 M⁻¹ s⁻¹ | ΔG [10]: -42.3 kJ/mol | Kd [11]: 0.0374 µM | koff [11]: 0.000122 s⁻¹ | kon [11]: 3270 M⁻¹ s⁻¹
Substance: Antibody AHP (Prolytix AHP-5013)
